T1: recombinant human Flag-Timeless (human, UniProt Q9UNS1 1-1208)
T1 construct: Timeless, human, component of the replication fork-protection complex; also called Flag-tagged Timeless; source: insect cells infected with a recombinant baculovirus (Sf9), purified
T1 sequence (looked up): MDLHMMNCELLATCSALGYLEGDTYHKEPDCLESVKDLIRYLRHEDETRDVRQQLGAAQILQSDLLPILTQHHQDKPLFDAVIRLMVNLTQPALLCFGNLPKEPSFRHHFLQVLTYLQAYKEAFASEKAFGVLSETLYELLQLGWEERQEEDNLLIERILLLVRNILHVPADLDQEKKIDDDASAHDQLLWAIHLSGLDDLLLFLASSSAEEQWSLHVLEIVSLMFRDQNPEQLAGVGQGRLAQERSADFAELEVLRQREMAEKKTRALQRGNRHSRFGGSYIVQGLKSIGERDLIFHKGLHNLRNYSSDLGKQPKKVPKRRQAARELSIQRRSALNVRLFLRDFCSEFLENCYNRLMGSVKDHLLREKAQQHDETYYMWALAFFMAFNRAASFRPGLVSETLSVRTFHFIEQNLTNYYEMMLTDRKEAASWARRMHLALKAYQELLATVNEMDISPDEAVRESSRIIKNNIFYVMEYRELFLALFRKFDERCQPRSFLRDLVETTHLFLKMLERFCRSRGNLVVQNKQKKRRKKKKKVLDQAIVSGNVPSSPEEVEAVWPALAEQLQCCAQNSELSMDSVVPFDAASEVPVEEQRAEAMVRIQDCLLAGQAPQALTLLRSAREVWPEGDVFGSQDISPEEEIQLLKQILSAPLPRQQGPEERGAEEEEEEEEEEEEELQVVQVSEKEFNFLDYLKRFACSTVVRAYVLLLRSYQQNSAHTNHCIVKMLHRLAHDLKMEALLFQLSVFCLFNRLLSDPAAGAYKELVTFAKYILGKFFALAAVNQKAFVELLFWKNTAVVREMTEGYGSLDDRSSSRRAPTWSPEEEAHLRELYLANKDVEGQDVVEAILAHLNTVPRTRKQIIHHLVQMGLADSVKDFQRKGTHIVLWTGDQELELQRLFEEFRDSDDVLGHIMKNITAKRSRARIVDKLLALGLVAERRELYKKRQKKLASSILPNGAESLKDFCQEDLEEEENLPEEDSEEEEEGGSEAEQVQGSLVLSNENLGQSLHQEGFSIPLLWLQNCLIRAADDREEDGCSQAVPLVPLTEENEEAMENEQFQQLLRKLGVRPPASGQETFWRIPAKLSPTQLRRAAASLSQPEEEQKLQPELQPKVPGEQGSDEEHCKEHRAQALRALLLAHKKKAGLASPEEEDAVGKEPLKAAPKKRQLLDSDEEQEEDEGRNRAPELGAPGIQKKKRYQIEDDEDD


Columns and labels:
[1] = target: T1, recombinant human Flag-Timeless; test: pull-down; mixtures of purified recombinant proteins (Timeless 0.8 ug or cohesin 1 ug, DDX11 0.5 ug, 200 uL) with anti-DDX11 antibody on Protein A beads; 25 mM Tris-HCl pH 7.5, 150 mM NaCl, 2 mM MgCl2, 1 mM DTT, 5% glycerol, 2 hr at 4 C; washes with 300 mM NaCl, 0.25% Triton X-100; immuno-blot; settings: both partners purified
[2] = target: T1, recombinant human Flag-Timeless; test: peptide or protein array; PEPperCHIP microarrays of 15-residue DDX11 peptides on glass slides (tiling array, 13-residue overlap; full substitution scan of peptide # 32); Flag-Timeless at 50 ug/mL in PBS, 0.05% Tween 20, 1% BSA for 16 hr; detected with Cy3-labelled anti-Flag antibody; control array without Flag-Timeless; settings: both partners purified

Row | binding result [1] | binding result [2] | Binder
1 | binds | – | DDX11-3xFlag wild type (enzyme, human, UniProt Q96FC9-2 1-906, looked up, DDX11 (ChlR1), human, full-length protein of 906 residues (1-906); also called Flag-tagged wild type (WT) DDX11; ChlR1; source: HEK 293T, transiently transfected (pcDNA 3.0); purified, and in whole cell extract; not shown: 3xFlag, C-terminal, kept) MANETQKVGAIHFPFPFTPYSIQEDFMAELYRVLEAGKIGIFESPTGTGKSLSLICGALSWLRDFEQKKREEEARLLETGTGPLHDEKDESLCLSSSCEGAAGTPRPAGEPAWVTQFVQKKEERDLVDRLKAEQARRKQREERLQQLQHRVQLKYAAKRLRQEEEERENLLRLSREMLETGPEAERLEQLESGEEELVLAEYESDEEKKVASRVDEDEDDLEEEHITKIYYCSRTHSQLAQFVHEVKKSPFGKDVRLVSLGSRQNLCVNEDVKSLGSVQLINDRCVDMQRSRHEKKKGAEEEKPKRRRQEKQAACPFYNHEQMGLLRDEALAEVKDMEQLLALGKEARACPYYGSRLAIPAAQLVVLPYQMLLHAATRQAAGIRLQDQVVIIDEAHNLIDTITGMHSVEVSGSQLCQAHSQLLQYVERYGKRLKAKNLMYLKQILYLLEKFVAVLGGNIKQNPNTQSLSQTGTELKTINDFLFQSQIDNINLFKVQRYCEKSMISRKLFGFTERYGAVFSSREQPKLAGFQQFLQSLQPRTTEALAAPADESQASTLRPASPLMHIQGFLAALTTANQDGRVILSRQGSLSQSTLKFLLLNPAVHFAQVVKECRAVVIAGGTMQPVSDFRQQLLACAGVEAERVVEFSCGHVIPPDNILPLVICSGISNQPLEFTFQKRELPQMMDEVGRILCNLCGVVPGGVVCFFPSYEYLRQVHAHWEKGGLLGRLAARKKIFQEPKSAHQVEQVLLAYSRCIQACGQERGQVTGALLLSVVGGKMSEGINFSDNLGRCVVMVGMPFPNIRSAELQEKMAYLDQTLPRAPGQAPPGKALVENLCMKAVNQSIGRAIRHQKDFASVVLLDQRYARPPVLAKLPAWIRARVEVKATFGPAIAAVQKFHREKSASS
2 | – | binds | EQLESGEEELVLAEY (15-residue peptide of human DDX11 (906-residue protein), in Region T (65-225); its two C-terminal residues are Glu201 and Tyr202 of full-length DDX11; source: synthetic peptide, printed on a PEPperCHIP microarray (PEPperPRINT)) [DDX11 Peptide # 32]
